Measured values published in patent US20150315621.

Molecular target: Aspergillus terreus LovB: Lovastatin nonaketide synthase

B1: Aspergillus terreus LovG: Esterase (protein)
chain: HHHHHHMRYQASPALAKAPRALLCIHGAGCSPAIFRVQLSKLRAALREDFEFVYVTAPFPSSAGPGILPVFADLGPYYSWFESSSGNNNNGPSVGERLAAVHDPIRRTIVDWQTQHPHIPIVGAIGFSEGALVTTLLLWQQQMGRLPWLPRMSVAMLICPWYQDEASQYMRNEVMENHDDDHDSKDTEWQEELVIRIPTLHLQGRDDFALAGSKMLVARHFSPREAQVLEFAGQHQFPNRPRDVLEVINRFRKLCVTVQTLE
B1 was tested, and the “offloaded aberrant products 8-10 from LovB in vitro in the absence of LovC (HPLC at 330 nm, LC-MS)” value was “Upon addition of LovG at equimolar concentration to LovB, the in vitro assay mixture turned significantly more yellow and the extract contained high amounts of offloaded products 8-10, in addition to 6 and 7” and the “turnover rate of dihydromonacolin L acid (2), in vitro with equimolar (10 µM) LovB, LovC and LovG” value was “the turnover rate of dihydromonacolin L acid (2) was estimated to be ˜0.12 hour^-1”.
